{
  "source": "the Immune Epitope Database (IEDB)",
  "key": {"HLA-A*11:01": {"biological_target": "HLA-A*11:01", "experiment": "IEDB peptide-MHC binding, purified MHC/direct/fluorescence; filed as Kd, often an IC50 or EC50 that approximates it; ≥ and ≤ were set here for values at or beyond the usual limits of such assays", "details": "source organism: Dengue virus 1 Singapore/S275/1990"}, "HLA-A*30:01": {"biological_target": "HLA-A*30:01", "experiment": "IEDB peptide-MHC binding, purified MHC/competitive/radioactivity; filed as Kd, often an IC50 or EC50 that approximates it; ≥ and ≤ were set here for values at or beyond the usual limits of such assays", "details": "source organism: Dengue virus 1 Brazil/97-11/1997"}, "HLA-A*32:01": {"biological_target": "HLA-A*32:01", "experiment": "IEDB peptide-MHC binding, purified MHC/competitive/radioactivity; filed as Kd, often an IC50 or EC50 that approximates it; ≥ and ≤ were set here for values at or beyond the usual limits of such assays", "details": "source organism: Dengue virus 1 Brazil/97-11/1997"}, "HLA-A*31:01": {"biological_target": "HLA-A*31:01", "experiment": "IEDB peptide-MHC binding, purified MHC/competitive/fluorescence; filed as Kd, often an IC50 or EC50 that approximates it; ≥ and ≤ were set here for values at or beyond the usual limits of such assays", "details": "source organism: dengue virus type 1"}, "HLA-B*15:42": {"biological_target": "HLA-B*15:42", "experiment": "IEDB peptide-MHC binding, purified MHC/competitive/fluorescence; filed as Kd, often an IC50 or EC50 that approximates it; ≥ and ≤ were set here for values at or beyond the usual limits of such assays"}, "HLA-B*83:01": {"biological_target": "HLA-B*83:01", "experiment": "IEDB peptide-MHC binding, purified MHC/competitive/fluorescence; filed as Kd, often an IC50 or EC50 that approximates it; ≥ and ≤ were set here for values at or beyond the usual limits of such assays"}, "HLA-B*45:06": {"biological_target": "HLA-B*45:06", "experiment": "IEDB peptide-MHC binding, purified MHC/competitive/fluorescence; filed as Kd, often an IC50 or EC50 that approximates it; ≥ and ≤ were set here for values at or beyond the usual limits of such assays"}, "HLA-A*32:07": {"biological_target": "HLA-A*32:07", "experiment": "IEDB peptide-MHC binding, purified MHC/competitive/fluorescence; filed as Kd, often an IC50 or EC50 that approximates it; ≥ and ≤ were set here for values at or beyond the usual limits of such assays"}, "HLA-A*68:02 [1]": {"biological_target": "HLA-A*68:02", "experiment": "IEDB peptide-MHC binding, purified MHC/competitive/fluorescence; filed as Kd, often an IC50 or EC50 that approximates it; ≥ and ≤ were set here for values at or beyond the usual limits of such assays", "details": "source organism: Francisella tularensis subsp. tularensis FSC198"}, "HLA-C*04:01": {"biological_target": "HLA-C*04:01", "experiment": "IEDB peptide-MHC binding, purified MHC/competitive/fluorescence; filed as Kd, often an IC50 or EC50 that approximates it; ≥ and ≤ were set here for values at or beyond the usual limits of such assays", "details": "source organism: Francisella tularensis subsp. tularensis FSC198"}, "HLA-A*01:01 [2]": {"biological_target": "HLA-A*01:01", "experiment": "IEDB peptide-MHC binding, purified MHC/competitive/fluorescence; ≥ and ≤ were set here for values at or beyond the usual limits of such assays", "details": "source organism: Zaire ebolavirus"}, "HLA-A*24:02": {"biological_target": "HLA-A*24:02", "experiment": "IEDB peptide-MHC binding, purified MHC/competitive/fluorescence; ≥ and ≤ were set here for values at or beyond the usual limits of such assays", "details": "source organism: Zaire ebolavirus"}, "HLA-A*69:01": {"biological_target": "HLA-A*69:01", "experiment": "IEDB peptide-MHC binding, purified MHC/direct/fluorescence; filed as Kd, often an IC50 or EC50 that approximates it; ≥ and ≤ were set here for values at or beyond the usual limits of such assays", "details": "source organism: Buffalopox virus"}, "HLA-B*15:01": {"biological_target": "HLA-B*15:01", "experiment": "IEDB peptide-MHC binding, purified MHC/direct/fluorescence; filed as Kd, often an IC50 or EC50 that approximates it; ≥ and ≤ were set here for values at or beyond the usual limits of such assays", "details": "source organism: Buffalopox virus"}, "HLA-A*68:02 [3]": {"biological_target": "HLA-A*68:02", "experiment": "IEDB peptide-MHC binding, purified MHC/direct/fluorescence; filed as Kd, often an IC50 or EC50 that approximates it; ≥ and ≤ were set here for values at or beyond the usual limits of such assays", "details": "source organism: Buffalopox virus"}, "HLA-A*02:01": {"biological_target": "HLA-A*02:01", "experiment": "IEDB peptide-MHC binding, purified MHC/direct/fluorescence; filed as Kd, often an IC50 or EC50 that approximates it; ≥ and ≤ were set here for values at or beyond the usual limits of such assays", "details": "source organism: Buffalopox virus"}, "HLA-B*48:01": {"biological_target": "HLA-B*48:01", "experiment": "IEDB peptide-MHC binding, purified MHC/direct/fluorescence; filed as Kd, often an IC50 or EC50 that approximates it; ≥ and ≤ were set here for values at or beyond the usual limits of such assays", "details": "source organism: Buffalopox virus"}, "HLA-B*27:05": {"biological_target": "HLA-B*27:05", "experiment": "IEDB peptide-MHC binding, purified MHC/direct/fluorescence; filed as Kd, often an IC50 or EC50 that approximates it; ≥ and ≤ were set here for values at or beyond the usual limits of such assays", "details": "source organism: Buffalopox virus"}, "HLA-B*40:01": {"biological_target": "HLA-B*40:01", "experiment": "IEDB peptide-MHC binding, purified MHC/direct/fluorescence; filed as Kd, often an IC50 or EC50 that approximates it; ≥ and ≤ were set here for values at or beyond the usual limits of such assays", "details": "source organism: Buffalopox virus"}, "HLA-B*57:01": {"biological_target": "HLA-B*57:01", "experiment": "IEDB peptide-MHC binding, purified MHC/direct/fluorescence; filed as Kd, often an IC50 or EC50 that approximates it; ≥ and ≤ were set here for values at or beyond the usual limits of such assays", "details": "source organism: Buffalopox virus"}, "HLA-B*39:01": {"biological_target": "HLA-B*39:01", "experiment": "IEDB peptide-MHC binding, purified MHC/direct/fluorescence; filed as Kd, often an IC50 or EC50 that approximates it; ≥ and ≤ were set here for values at or beyond the usual limits of such assays", "details": "source organism: Buffalopox virus"}, "HLA-A*26:03": {"biological_target": "HLA-A*26:03", "experiment": "IEDB peptide-MHC binding, purified MHC/direct/fluorescence; filed as Kd, often an IC50 or EC50 that approximates it; ≥ and ≤ were set here for values at or beyond the usual limits of such assays", "details": "source organism: Variola virus"}, "HLA-A*01:01 [4]": {"biological_target": "HLA-A*01:01", "experiment": "IEDB peptide-MHC binding, purified MHC/direct/fluorescence; filed as Kd, often an IC50 or EC50 that approximates it; ≥ and ≤ were set here for values at or beyond the usual limits of such assays", "details": "source organism: Buffalopox virus"}, "HLA-B*58:01": {"biological_target": "HLA-B*58:01", "experiment": "IEDB peptide-MHC binding, purified MHC/direct/fluorescence; filed as Kd, often an IC50 or EC50 that approximates it; ≥ and ≤ were set here for values at or beyond the usual limits of such assays", "details": "source organism: Buffalopox virus"}, "HLA-B*46:01": {"biological_target": "HLA-B*46:01", "experiment": "IEDB peptide-MHC binding, purified MHC/direct/fluorescence; filed as Kd, often an IC50 or EC50 that approximates it; ≥ and ≤ were set here for values at or beyond the usual limits of such assays", "details": "source organism: Buffalopox virus"}, "HLA-A*26:02": {"biological_target": "HLA-A*26:02", "experiment": "IEDB peptide-MHC binding, purified MHC/competitive/fluorescence; filed as Kd, often an IC50 or EC50 that approximates it; ≥ and ≤ were set here for values at or beyond the usual limits of such assays", "details": "source organism: Variola virus"}, "HLA-B*07:02": {"biological_target": "HLA-B*07:02", "experiment": "IEDB peptide-MHC binding, purified MHC/competitive/fluorescence; filed as Kd, often an IC50 or EC50 that approximates it; ≥ and ≤ were set here for values at or beyond the usual limits of such assays", "details": "source organism: Variola virus"}, "HLA-B*35:01": {"biological_target": "HLA-B*35:01", "experiment": "IEDB peptide-MHC binding, purified MHC/competitive/fluorescence; filed as Kd, often an IC50 or EC50 that approximates it; ≥ and ≤ were set here for values at or beyond the usual limits of such assays", "details": "source organism: Variola virus"}, "HLA-B*15:17": {"biological_target": "HLA-B*15:17", "experiment": "IEDB peptide-MHC binding, purified MHC/competitive/fluorescence; filed as Kd, often an IC50 or EC50 that approximates it; ≥ and ≤ were set here for values at or beyond the usual limits of such assays", "details": "source organism: Variola virus"}, "HLA-B*18:01": {"biological_target": "HLA-B*18:01", "experiment": "IEDB peptide-MHC binding, purified MHC/competitive/fluorescence; filed as Kd, often an IC50 or EC50 that approximates it; ≥ and ≤ were set here for values at or beyond the usual limits of such assays", "details": "source organism: Variola virus"}, "[5]": {"details": "source organism: dengue virus type 1"}, "[6]": {"details": "source organism: Francisella tularensis subsp. tularensis FSC198"}},
  "data": [
    {"sequence": "ATYGWNLVK", "values": [
      {"measurement": "Kd", "setting": "HLA-A*11:01", "result": "≤ 0.001", "unit": "µM"},
      {"measurement": "Kd", "setting": "HLA-A*30:01", "result": 0.212, "unit": "µM"},
      {"measurement": "Kd", "setting": "HLA-A*32:01", "result": 0.755, "unit": "µM"},
      {"measurement": "Kd", "setting": "HLA-A*31:01", "result": 0.00148, "unit": "µM"},
      {"measurement": "Kd", "setting": "HLA-B*15:42; [5]", "result": "≥ 5", "unit": "µM"},
      {"measurement": "Kd", "setting": "HLA-B*83:01; [5]", "result": "≥ 5", "unit": "µM"},
      {"measurement": "Kd", "setting": "HLA-B*45:06; [5]", "result": "≥ 5", "unit": "µM"},
      {"measurement": "Kd", "setting": "HLA-A*32:07; [5]", "result": 0.0774, "unit": "µM"}
    ]},
    {"sequence": "MGAGLVFPI", "values": [
      {"measurement": "Kd", "setting": "HLA-A*68:02 [1]", "result": "≤ 0.0001", "unit": "µM"},
      {"measurement": "Kd", "setting": "HLA-B*15:42; [6]", "result": "≥ 5", "unit": "µM"},
      {"measurement": "Kd", "setting": "HLA-B*83:01; [6]", "result": "≥ 5", "unit": "µM"},
      {"measurement": "Kd", "setting": "HLA-C*04:01", "result": "≥ 5", "unit": "µM"},
      {"measurement": "Kd", "setting": "HLA-B*45:06; [6]", "result": "≥ 5", "unit": "µM"},
      {"measurement": "Kd", "setting": "HLA-A*32:07; [6]", "result": 0.0448, "unit": "µM"}
    ]},
    {"sequence": "HKEGAFFLY", "values": [
      {"measurement": "IC50", "setting": "HLA-A*01:01 [2]", "result": "≥ 136", "unit": "µM"},
      {"measurement": "IC50", "setting": "HLA-A*24:02", "result": "≥ 149", "unit": "µM"}
    ]},
    {"sequence": "IHSDQLSKF", "values": [
      {"measurement": "Kd", "setting": "HLA-A*69:01", "result": "≥ 20", "unit": "µM"},
      {"measurement": "Kd", "setting": "HLA-B*15:01", "result": "≥ 20", "unit": "µM"},
      {"measurement": "Kd", "setting": "HLA-A*68:02 [3]", "result": "≥ 20", "unit": "µM"},
      {"measurement": "Kd", "setting": "HLA-A*02:01", "result": "≥ 20", "unit": "µM"},
      {"measurement": "Kd", "setting": "HLA-B*48:01", "result": "≥ 20", "unit": "µM"},
      {"measurement": "Kd", "setting": "HLA-B*27:05", "result": "≥ 20", "unit": "µM"},
      {"measurement": "Kd", "setting": "HLA-B*40:01", "result": "≥ 20", "unit": "µM"},
      {"measurement": "Kd", "setting": "HLA-B*57:01", "result": "≥ 20", "unit": "µM"},
      {"measurement": "Kd", "setting": "HLA-B*39:01", "result": "≥ 20", "unit": "µM"},
      {"measurement": "Kd", "setting": "HLA-A*26:03", "result": "≥ 20", "unit": "µM"},
      {"measurement": "Kd", "setting": "HLA-A*01:01 [4]", "result": "≥ 20", "unit": "µM"},
      {"measurement": "Kd", "setting": "HLA-B*58:01", "result": "≥ 20", "unit": "µM"},
      {"measurement": "Kd", "setting": "HLA-B*46:01", "result": "≥ 20", "unit": "µM"},
      {"measurement": "Kd", "setting": "HLA-A*26:02", "result": 2.68, "unit": "µM"},
      {"measurement": "Kd", "setting": "HLA-B*07:02", "result": "≥ 20", "unit": "µM"},
      {"measurement": "Kd", "setting": "HLA-B*35:01", "result": 2.38, "unit": "µM"},
      {"measurement": "Kd", "setting": "HLA-B*15:17", "result": "≥ 20", "unit": "µM"},
      {"measurement": "Kd", "setting": "HLA-B*18:01", "result": 4.57, "unit": "µM"}
    ]}
  ]
}
